# Results reported in patent US20220235138A1, “CAR-T CELLS TARGETING IL-1RAP AND THEIR USE IN ACUTE MYELOID LEUKEMIA (AML)” (ETABLISSEMENT FRANCAIS DU SANG, priority 2019, published 2022).
# Columns and labels:
# [1] = target: T1, IL-1RAP recombinant protein (Homo sapiens, UniProt Q9NPH3); assay: ELISA detection of recombinant IL-1RAP protein; format: binding
# T1 construct: recombinant fusion protein consisting of the extra cellular part of IL-1RAP (NM_002182.2, NCBI) and the Fc-part of human IgG1; purchased R&D Systems
# T1 sequence (Q9NPH3 21-367 limits assumed): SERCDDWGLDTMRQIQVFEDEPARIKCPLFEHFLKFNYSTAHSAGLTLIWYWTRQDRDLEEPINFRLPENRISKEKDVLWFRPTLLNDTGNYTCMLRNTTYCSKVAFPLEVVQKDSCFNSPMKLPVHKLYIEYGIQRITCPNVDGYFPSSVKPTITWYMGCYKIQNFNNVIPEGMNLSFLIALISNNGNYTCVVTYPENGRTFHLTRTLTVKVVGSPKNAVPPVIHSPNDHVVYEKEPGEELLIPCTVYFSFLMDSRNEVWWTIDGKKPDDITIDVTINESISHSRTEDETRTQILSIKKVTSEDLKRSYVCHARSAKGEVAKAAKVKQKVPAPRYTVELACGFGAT
# Text: Anti-human Fc antibody was coated on a bottom of a plastic ELISA plate.
# IL-1RAP = assay: Western blotting and cell surface staining of AML cell lines; format: binding, human
# IL-1RAP, sequence (Q9NPH3 21-570): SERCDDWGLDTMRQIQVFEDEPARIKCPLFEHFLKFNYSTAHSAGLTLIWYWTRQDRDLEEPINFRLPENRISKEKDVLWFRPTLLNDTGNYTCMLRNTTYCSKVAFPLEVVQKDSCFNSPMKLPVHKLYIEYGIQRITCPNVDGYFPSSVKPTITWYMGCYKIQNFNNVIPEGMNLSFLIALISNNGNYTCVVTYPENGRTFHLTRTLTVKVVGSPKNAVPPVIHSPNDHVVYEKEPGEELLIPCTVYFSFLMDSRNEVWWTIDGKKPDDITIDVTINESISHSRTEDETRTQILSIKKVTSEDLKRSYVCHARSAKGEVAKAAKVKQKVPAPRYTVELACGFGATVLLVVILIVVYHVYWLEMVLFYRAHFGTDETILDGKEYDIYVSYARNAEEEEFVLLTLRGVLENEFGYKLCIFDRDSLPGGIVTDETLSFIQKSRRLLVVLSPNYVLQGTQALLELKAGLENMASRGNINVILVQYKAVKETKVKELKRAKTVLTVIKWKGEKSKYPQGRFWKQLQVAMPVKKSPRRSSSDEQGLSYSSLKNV
# Text: Whole cellular lysates of different AML or CML (positive control) hematopoietic cell lines were separated by polyacrylamide gel electrophoresis and electrotransferred onto polyvinylidene difluoride membranes. Membranes were probed overnight with primary IL-1RAP #A3C3 (diluted at 1:20). Twenty micrograms of protein were electrophoresed on sodium dodecyl-sulfate polyacrylamide gels (SDS-PAGE), and then sonicated protein fractions were suspended in RIPA buffer supplemented with a protease inhibitor cocktail (complete Mini EDTA-free; Roche, Bale, Switzerland). Protein load in the western blot lane was evaluated with β-actin mAb staining (1:1000, clone AC15, #A5441, Sigma-Aldrich). Immunodetection staining was performed with a secondary polyclonal antibody sheep anti-mouse IgG (#515-035-062, Jackson). Enhanced chemiluminescence detection reagents allowed detection with a camera and Bio-1D software (Vilber-Lourmat, Collegien, France).
# IL-1RAP cell surface staining of different hematopoietic AML cell lines was performed, using #A3C3 mAb and IL-1RAP murine mAb as staining comparison.
# Relative Fluorescence Intensity (RFI) between IL-1RAP staining and isotype was calculated. IL-1RAP+ (KU812) or IL-1RAP-(Raji) cell lines were used as positive or negative controls respectively.
# AML blasts = assay: Flow cytometry on primary cells from AML patients; format: cell-based, human; settings: all subtypes, n=30
# Text: FIG. 3: Flow cytometry-gating strategy on AML primary samples of patients. RFI is provided for blasts and monocytes subpopulations (Left). Percentage of IL-1RAP+ within AML blasts and monocytes, CD123+ and IL-1RAP+/CD123+ cells within AML Blasts in a cohort of routine AML (all subtypes) patients (n=30) (Right, up). RFI is also provided (Right, bottom).
# For primary samples of bone marrow or peripheral bloods of AML patients, the murine IL-1RAP mAb (#E3C3) was included in a panel allowing to detect CD45, CD34, CD38, CD33, CD123, and CD14 (for monocytes). Stained cells were collected by a CANTO II cytometer (BD Biosciences, Le Pont-de-Claix, France) and analyzed by DIVA 6.1 software (BD Biosciences, Le Pont-de-Claix, France).
molecule,measurement,setting,value
"#A3C3: mouse anti-hIL-1RAP monoclonal antibody generated by standard hybridoma technique; VH SEQ ID No 2, VL SEQ ID No 4 (antibody, V domains shown, Amino acid sequence of chain H (VH) of murine scFv anti-IL-1RAP; Amino acid sequence of chain K (VL) of murine scFv anti-IL-1RAP) VH: MGWSCIILFLVATATGVNSQVQLQQPGAELMMPGASVKVSCEASGYTFTDSWMHWVKQRPGQGLEWIGAIDPSDSYTTYNQKFTGKATLSVDESSNTAYMQLSSLTSEDSAVYYCARYYSGSNYISPFPYWGQGTLVTVSA VL: MESQIQVFVFVFLWLSGVDGDIVMTQSHKFMSTSVGDRVTITCKASLDVSTAVAWYQQKPGQSPKLLIYSASYRYTGVPDRFTGSGSGTDFTFTISSVQAEDLAVYYCQQHYSPPFTFGSGTNLEIK",recognition of IL-1RAP recombinant protein,[1],recognize the IL-1RAP recombinant protein
same,staining of AML cell lines expressing IL-1RAP at the cell surface,IL-1RAP,able to stain different AML cell lines
same,"presence of IL-1RAP on AML blasts, percentage",AML blasts,84.27±17.4%
